Reference: the supplement of paper PMC9732359
± gives the uncertainty stated by the source.

Assay: protein stability index of a GFP-peptide fusion (yeast GPS) (PSI 1-4); higher = more stable; sorted into four equal gates, so the index is relative within each strain
Outline: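 Peptides tiling yeast proteins in 17-residue segments were fused downstream of GFP, with Cherry expressed from the same plasmid. As a pooled library in yeast, mid-log cultures grown in leucine-free medium were sorted into four equal gates by GFP/Cherry fluorescence ratio. Gate plasmids were PCR-amplified and Illumina-sequenced, and barcodes linked reads to strains. Each peptide received a protein stability index equal to the sum of each gate's read frequency times its gate number.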

Sequence | protein stability index (doa10∆) | protein stability index (pdr5∆) | protein stability index (san1∆) | protein stability index (ubr1∆)
VQQFAQLPVGFKNMGNT [UBP6] | 2.03 ± 0.1 | 1.74 ± 0.076 | 1.44 ± 0.15 | 1.92 ± 0.06
KSITLKGRNNESNNKKY [YDL088C/ASM4] | 3.19 ± 0.086 | 3.11 ± 0.066 | 3.13 ± 0.059 | 3.08 ± 0.064
KAFEERHQAGKNQWFFS [RPL27A] | 2.87 ± 0.097 | 3.14 ± 0.11 | 2.65 ± 0.11 | 3.03 ± 0.055
QTRWGLPSGRQDGVLLV [FAS2] | 1.65 ± 0.12 | – | 1.59 ± 0.24 | 1.32 ± 0.15
FMNDAAADVSAVDAKQL [YML103C/NUP188] | 2.52 ± 0.095 | 2.54 ± 0.099 | 3.06 ± 0.091 | 2.21 ± 0.081
MKAVRKVAEVKKLEGTI [RPT4] | 3.15 ± 0.093 | 3.2 ± 0.1 | 3.16 ± 0.073 | 3.56 ± 0.071
VKQVLLSVEIGVLTDIS [NUT1] | 1.16 ± 0.063 | 1.47 ± 0.056 | 1.37 ± 0.18 | 1.64 ± 0.066
TAAYARTIGIAVDHRRQ [RPL13A] | 1.58 ± 0.077 | 1.58 ± 0.05 | 1.22 ± 0.088 | 1.77 ± 0.055
SVIVDSKVTVPPSKHST [ESC2] | 2.75 ± 0.11 | 2.93 ± 0.089 | 2.72 ± 0.092 | 2.81 ± 0.049
DKKYKGLTTVWLLSALG [REC8] | 2.24 ± 0.054 | 2.38 ± 0.063 | 2.04 ± 0.084 | 2.29 ± 0.039
TEKMEEQLDLLSAILDP [MED11] | 3.14 ± 0.087 | 3 ± 0.1 | 3.13 ± 0.12 | 3.4 ± 0.1
KKEKLDSGEVDADGDID [DPB4] | 3.05 ± 0.15 | 3.4 ± 0.17 | 3.29 ± 0.12 | 3.36 ± 0.11
DRELNEVINQMERLDGD [SMC3] | 3.13 ± 0.086 | 3.29 ± 0.083 | 3.2 ± 0.08 | 3.1 ± 0.045
LKIFKIFCIDLEVFHHF [SRB8] | 1.57 ± 0.069 | 2.23 ± 0.1 | 1.67 ± 0.1 | 2.53 ± 0.092
SKNSPAEDDVIIPQDIL [YJR042W/NUP85] | 3.19 ± 0.13 | 2.96 ± 0.12 | 3.07 ± 0.12 | 3.36 ± 0.19
QVARTNLDGTKAVKLRK [ROX3] | 3.03 ± 0.07 | 3.13 ± 0.063 | 2.98 ± 0.051 | 3.15 ± 0.058
REIHNEAESQLRAAQQQ [FAS2] | 2.91 ± 0.088 | 2.36 ± 0.07 | 2.86 ± 0.076 | 2.91 ± 0.053
VEFINKMENFEFLPLSL [SRB8] | 3.08 ± 0.16 | 3 ± 0.069 | 3.1 ± 0.12 | 3.16 ± 0.097
DEEMAVLTRMDEDRSKK [SNF2] | 3.17 ± 0.071 | 2.66 ± 0.083 | 2.42 ± 0.092 | 2.57 ± 0.072
HELSRAELEELEEFEFK [SMD2] | 3.26 ± 0.072 | 3.3 ± 0.071 | 3.42 ± 0.059 | 3.45 ± 0.055

Sequence | protein stability index (doa10∆) | protein stability index (pdr5∆) | protein stability index (san1∆) | protein stability index (ubr1∆)
TDSWESFFVSVRKAITV [FAS1] | 2.76 ± 0.27 | 2.4 ± 0.17 | – | –
KDAVDYSKIPNILSNKP [RRP6] | 1.51 ± 0.096 | 1.97 ± 0.093 | 1.58 ± 0.21 | 1.58 ± 0.049
KDSSLNYSSESYRNAFT [YJL039C/NUP192] | 2.89 ± 0.06 | 2.32 ± 0.064 | 2.02 ± 0.069 | 2.85 ± 0.047
RKPMGKRINFEKIKDIH [POP1] | 2.67 ± 0.051 | 3.12 ± 0.05 | 3.04 ± 0.065 | 2.87 ± 0.038
QPSKVSSNVQQPQQQLG [RTT102] | 2.82 ± 0.081 | 2.88 ± 0.094 | 2.61 ± 0.082 | 3.03 ± 0.1
VWFSHPRRYGKGSRQCR [RPS29A] | 3.14 ± 0.16 | 3.24 ± 0.1 | 3.39 ± 0.067 | 3.31 ± 0.11
DPKRLFEGNALIRRLVR [RPS9A] | – | 3.52 ± 0.28 | – | –
VGACTDEEMTISQKLHD [RRP43] | 3.14 ± 0.1 | 3.04 ± 0.089 | 3.04 ± 0.084 | 3.12 ± 0.059
KRVPNPNFLGNCNIKDF [SWP82] | 2.05 ± 0.051 | 2.36 ± 0.04 | 2 ± 0.056 | 2.22 ± 0.032
DLEHKEDCVEEFFHLQH [QCR6] | 2.77 ± 0.1 | 2.75 ± 0.11 | 2.69 ± 0.14 | 3.37 ± 0.1
ASKKFGKICLILTRLNG [SSN2] | 1.99 ± 0.17 | 2.14 ± 0.27 | – | –
LGGDSDEANIEIDPLTG [BRN1] | 3.05 ± 0.18 | 3.48 ± 0.27 | 2.92 ± 0.18 | –
TNKSKRPSITEAMMLKE [MED1] | 2.91 ± 0.12 | 3.03 ± 0.087 | 2.89 ± 0.094 | 3.03 ± 0.084
RYNGGNDNIGANRSRFN [SMB1] | 3.24 ± 0.099 | 3.39 ± 0.078 | 3.14 ± 0.048 | 3.35 ± 0.08
SQQNIVPNSSDQAELPN [SNF2] | 2.73 ± 0.06 | 2.67 ± 0.079 | 3.04 ± 0.057 | 3.01 ± 0.069
NAIFLSSEQDYSTLKEL [YCG1] | 2.61 ± 0.078 | 2.6 ± 0.11 | 2.18 ± 0.18 | 2.81 ± 0.094
NEPSQSLISTRNDSTVN [BRN1] | 3.16 ± 0.07 | 3.17 ± 0.086 | 3.08 ± 0.071 | 2.82 ± 0.045
LELAGMDALYEKIWFAI [SIR3] | 1.41 ± 0.095 | 1.53 ± 0.068 | 1.21 ± 0.11 | 1.15 ± 0.052
HRLLQRALFRQLKRWYW [RMP1] | 2.29 ± 0.18 | 1.2 ± 0.12 | 1.22 ± 0.17 | 1.35 ± 0.11
TVFLPMVGLVDPDKLKP [RPT5] | 2.77 ± 0.061 | 2.66 ± 0.079 | 2.47 ± 0.058 | 2.44 ± 0.062
